Patent US12065673B2, “Method for obtaining human brown/beige adipocytes” (ETABLISSEMENT FRANCAIS DU SANG, priority 2015, dated 2024)

Assays:
Assay type in all cases: cell-based, human
[1] = system: adipogenic progenitor cells (pAdSCs); assay: Adipogenic differentiation after BMP induction (QRT-PCR adipocyte markers, Oil red O); conditions: 50 ng/mL BMP for 3 days, recovered at day 10
Protocol: Total RNA was extracted from ASCs and purified by AllPrep DNA/RNA/Protein kit (Qiagen, Courtaboeuf, France) and dosed by nanodrop (Thermo Fischer, Courtaboeuf, France). RNA purity and integrity was checked using the Experion™ RNA Std Sens Reagents on the Experion automatisated system (Biorad). […] The reverse transcription (RT) was performed on 1 μg RNA by using high capacity cDNA reverse transcription kit (Applied Biosystem ™) and random hexamers in a final volume of 20 μL. The oligonucleotides for each target of interest, designed by using Primer Express software (PerkinElmer Life Sciences, Waltham, Mass.) were used (forward and reverse) and listed in table1. Quantitative PCR was performed on diluted cDNA (equivalent to 25 ng of starting purified RNA) using SSoFast EvaGreen Supermix (Biorad, Marnes-la-Coquette, France) with 500 nM of forward and reverse primers in a total volume of 20 μL on a CFX™ Real Time System (Biorad) following: 95° C., 3 minutes and 40 cycles of denaturation (95° C., 10 seconds) and primers hybridation and amplification (60° C., 30 seconds). […] Melt curves and appropriate No RT control were used to validate amplification specificity. Data were analysed on Bio-Rad CFX manager (threshold=0.2), exported to DataAssist Software v3.0 (Applied Biosystems). […] All real-time PCR reactions for the individual samples were performed in duplicate. […]

[2] = system: standard ASCs; assay: Osteoblastic marker expression after BMP induction; conditions: 50 ng/mL BMP for 3 days
[3] = system: adipogenic progenitor cells (pAdSCs); assay: Brown/beige marker UCP1 by western blotting and immuno-fluorescence; conditions: adipocytes from adipogenic progenitor cells; for UCP1 induction at protein level: western blotting and immuno-fluorescence
Protocol: Proteins which were extracted by AllPrep DNA/RNA/Protein kit (Qiagen, Courtaboeuf, France) were subjected to the Western blot analysis. Briefly, eluate from DNA and RNA retention columns was precipitated by APP buffer (v/v), centrifuged (10,000 g, 10 min), washed by ethanol 70%, and air dried. Pellets were dissolved in ALO buffer (Qiagen, Courtaboeuf, France), sonicated and protein content was determined by Bicinchoninic Acid method (Pierce). After denaturation (95° C., 5 min), proteins were separated by 12% Tris-glycine-SDS polyacrylamide gel electrophoresis, and subsequently transferred to polyvinylidene difluoride membrane (PVDF). The proteins were detected with Rabbit polyclonal Ab anti-human SOX2 (ab97959; Abcam, Cambridge, UK), anti-human OCT4 (ab19857, Abcam), anti-human NANOG (SC33759; SantaCruz, Dallas, Tex.), anti-human PRDM16, anti-human UCP1, or with Mouse monoclonal Ab anti-human PPARG, anti-βActin and anti-RUNX2 (Abcam) antibodies. […] The Pactin was used as internal positive control (Sigma).
After expansion, ASC- or EGM-2-derived cells were also cultured in chamber slides and after becoming confluent, cells were induced to differentiate into brown/beige adipocytes. After 7 days, the cells were stained with anti-UCP1 antibody (Alpha Diagnostic, San-Antonio, Tex.), and then with Alexa488-labeled goat anti-mouse secondary antibody (Invitrogen). The staining was read by using confocal microscope (Zeiss 510, Zeiss, Oberkochen, Germany).

[4] = system: EGM2-derived Bone Marrow-MSCs; assay: BMP7-induced differentiation of BM-MSCs (QRT-PCR)
[5] = system: MSCs cultured in standard conditions; assay: BMP7-induced differentiation of BM-MSCs cultured in standard conditions; conditions: BMP7 treatment

| Molecule | adipocyte generation after BMP treatment [1] | osteoblastic marker expression after BMP treatment [2] | UCP1 induction at protein level [3] | UCP1 induction, BMP7 compared with BMP4 [3] | expression of adipogenic and brown/beige genes (UCP1, CIDEA) [4] | differentiation outcome of MSCs [5] |
| --- | --- | --- | --- | --- | --- | --- |
| Bone Morphogenetic Protein 4 (protein, UniProt P12644 293-408, looked up, recombinant human Bone Morphogenetic Protein 4 (Miltenyi), adipogenic/browning agent) Bone morphogenetic protein 4: SPKHHSQRARKKNKNCRRHSLYVDFSDVGWNDWIVAPPGYQAFYCHGDCPFPLADHLNSTNHAIVQTLVNSVNSSIPKACCVPTELSAISMLYLDEYDKVVLKNYQEMVVEGCGCR | generated clearly defined adipocytes | expressed high levels of osteoblastic markers | strongly induced | – | – | – |
| BMP7: recombinant human BMP7 (RnD system's), pro-beige/brown adipocyte factor (protein, UniProt P18075 293-431, looked up) Bone morphogenetic protein 7: STGSKQRSQNRSKTPKNQEALRMANVAENSSSDQRQACKKHELYVSFRDLGWQDWIIAPEGYAAYYCEGECAFPLNSYMNATNHAIVQTLVHFINPETVPKPCCAPTQLNAISVLYFDDSSNVILKKYRNMVVRACGCH | generated clearly defined adipocytes | expressed high levels of osteoblastic markers | strongly induced | more potent and reliable | triggered expressions of adipogenic and UCP1, CIDEA genes | differentiate into osteoblastic cells solely |
